Assay results published in patent US20220363763A1 (ABL BIO, published 2022).

Legend:
[1] = biological target: T1, human PD-L1 expressed on mammalian cells (human, UniProt Q9NZQ7 19-290); test: FACS-based receptor blocking on PDL1-CHOK1 cells; blocked ligand biotin-labeled huPD-1; unit from the x axis Log [Con. M]; the text prints the rounded 2.56 nM
T1 construct: whole, on cells; also called PDL1-CHOK1 cells; PDL1-Raji cells
Method: (§1) To evaluate the blocking effect of HL1210-3 mouse mAb on human PD-L1 expressed on mammalian cells to bind to its receptor PD-1, the FACS-based receptor blocking assay was used. Briefly, PDL1-CHOK1 cells were firstly incubated with 3-fold serious diluted HL1210-3 mouse mAb starting at 20 μg/ml at RT for 1 hour. After wash by FACS buffer (PBS with 2% FBS), the biotin-labeled huPD-1 was added to each well and incubated at RT for 1 hour. Then, the Streptavidin-PE was added to each well for 0.5 hour post twice wash with FACS buffer. The mean florescence intensity (MFI) of PE was evaluated by FACSAriaIII.

[2] = biological target: T2, human PD-L1-his taq protein (human, UniProt Q9NZQ7 19-239, limits assumed); test: SPR Biacore T200, antibody captured by anti-mouse Fc, PD-L1-his injected
T2 construct: also called recombinant PD-L1 protein; recombinant human PD-L1; not shown: his tag
Method: The binding of the HL1210-3 antibodies to recombinant PD-L1 protein (human PD-L1-his taq) was tested with BIACORE™ using a capture method. The HL1210-3 mouse mAb was captured using anti-mouse Fc antibody coated on a CM5 chip. A series dilution of human PD-L1-his taq protein was injected over captured antibody for 3 mins at a flow rate of […]. The antigen was allowed to dissociate for 900 s. All the experiment were carded out on a Biacore T200. Data analysis was carried out using Biacore T200 evaluation software.

human PD-L1-Fc protein [3] = biological target: T3, human PD-L1-Fc protein (human, UniProt Q9NZQ7 19-239); test: ELISA on coated PD-L1-Fc
T3 construct: Coated on ELISA plates; also called huPD-L1; not shown: Fc part

human PD-L1-Fc protein [4] = biological target: T3, human PD-L1-Fc protein; test: ELISA receptor blocking, coated PD-L1-Fc, competitor biotin PD-1-Fc
Method: To evaluate the blocking effect of HL1210-3 mouse mAb on recombinant human PD-L1 to bind to its receptor PD-1, the ELISA based receptor blocking assay was employed. Briefly, microtiter plates were coated with human PD-L1-Fc protein at 1 μg/ml in PBS, 100 μl/well at 4° C. overnight, then blocked with 100 μl/well of 5% BSA. 50 μl biotin-labeled human PD-1-Fc protein and 3-fold dilutions of HL1210-3 antibodies starting from 2 μg/ml at 50 μl were added to each well and incubated for 1 hour at 37° C. The plates were washed with PBS/Tween and then incubated with Streptavidin-HRP for 1 hour at 37° C. After washing, the plates were developed with TMB substrate and analyzed by spectrophotometer at OD 450-630 nm.

[5] = biological target: T1, human PD-L1 expressed on mammalian cells; test: FACS receptor blocking on PDL1-CHOK1 cells, competitor biotin huPD-1
Method: as §1

B7-2 = biological target: T4, B7-2 (human, UniProt P42081 24-247, limits assumed); test: ELISA
T4 sequence (looked up): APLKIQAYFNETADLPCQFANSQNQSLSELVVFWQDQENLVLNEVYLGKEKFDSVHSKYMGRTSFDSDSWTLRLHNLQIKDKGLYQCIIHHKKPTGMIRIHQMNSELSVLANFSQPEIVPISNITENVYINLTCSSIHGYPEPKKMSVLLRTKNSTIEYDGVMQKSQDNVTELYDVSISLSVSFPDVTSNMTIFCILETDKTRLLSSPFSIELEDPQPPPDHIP

B7-DC = biological target: T5, B7-DC (human, UniProt Q9BQ51 20-220, limits assumed); test: ELISA
T5 sequence (looked up): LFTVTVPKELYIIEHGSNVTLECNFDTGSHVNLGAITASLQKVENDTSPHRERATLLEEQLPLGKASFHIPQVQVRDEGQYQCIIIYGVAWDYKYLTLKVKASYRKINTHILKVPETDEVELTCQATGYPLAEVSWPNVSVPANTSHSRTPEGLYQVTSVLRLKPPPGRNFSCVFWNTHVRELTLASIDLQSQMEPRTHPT

CD28 = CD28 (human, UniProt P10747 19-152); test: ELISA
huPD-1 = biological target: T6, huPD-1 (human, UniProt Q15116 25-167, limits assumed, biotin-labeled in the FACS blocking assays); test: ELISA
T6 construct: also called biotin-labeled huPD-1; Bio-PD1

ICOS = biological target: T7, ICOS (human, UniProt Q9Y6W8 21-140, limits assumed); test: ELISA
T7 sequence (looked up): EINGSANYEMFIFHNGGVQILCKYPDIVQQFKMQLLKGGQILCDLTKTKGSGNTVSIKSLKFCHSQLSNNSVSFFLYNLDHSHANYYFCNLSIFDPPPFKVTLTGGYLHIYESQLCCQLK

B7-H2 = biological target: T8, B7-H2 (human, UniProt O75144 19-258, limits assumed); test: ELISA
T8 sequence (looked up): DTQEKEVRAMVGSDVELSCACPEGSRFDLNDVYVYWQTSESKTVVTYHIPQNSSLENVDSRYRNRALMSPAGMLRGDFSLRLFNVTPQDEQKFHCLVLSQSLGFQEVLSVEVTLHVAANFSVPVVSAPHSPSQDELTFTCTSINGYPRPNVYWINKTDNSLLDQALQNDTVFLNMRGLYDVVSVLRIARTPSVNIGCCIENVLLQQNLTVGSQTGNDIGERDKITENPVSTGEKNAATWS

BTLA = BTLA (human, UniProt Q7Z6A9 31-157, limits assumed); test: ELISA
CTLA4 = CTLA4 (human, UniProt P16410 36-161, limits assumed); test: ELISA
B7-1 protein = biological target: T9, B7-1 protein (human, UniProt P33681 35-242, limits assumed, biotin-labeled in the blocking assay); test: ELISA
T9 construct: also called human B7-1; biotin-labeled B7-1
T9 sequence (looked up): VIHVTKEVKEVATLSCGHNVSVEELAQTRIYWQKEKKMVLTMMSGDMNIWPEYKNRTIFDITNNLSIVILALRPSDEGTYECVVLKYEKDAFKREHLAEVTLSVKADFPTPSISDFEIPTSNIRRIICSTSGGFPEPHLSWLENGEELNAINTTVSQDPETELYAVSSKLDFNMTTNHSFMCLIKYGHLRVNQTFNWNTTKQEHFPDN

human PD-L1-Fc protein [6] = biological target: T3, human PD-L1-Fc protein; test: receptor blocking assay, panel PD1; blocked ligand biotin-labeled human PD-1-Fc; by paragraph 296 an ELISA on coated PD-L1-Fc, though the sheet is headed 'Cell based receptor blocking assay'
How it was run: (§2)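 This protein-based receptor blocking ELISA used plates coated overnight at 4° C with human PD-L1-Fc at 1 μg/ml in PBS (100 μl/well), blocked with 5% BSA for 2 hr at 37° C. 50 μl biotin-labeled human PD-1-Fc or B7-1 protein plus 50 μl of 5-fold antibody dilutions starting from 100 nM were incubated for 1 hour at 37° C. Streptavidin-HRP was then added for 1 hour at 37° C. IC50 was read off the curve.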

human PD-L1-Fc protein [7] = biological target: T3, human PD-L1-Fc protein; test: receptor blocking assay, panel B7-1; blocked ligand biotin-labeled B7-1 protein; by paragraph 296 an ELISA on coated PD-L1-Fc, though the sheet is headed 'Cell based receptor blocking assay'
How it was run: as §2

human PD-L1-Fc protein [8] = biological target: T3, human PD-L1-Fc protein; test: ELISA on coated human PD-L1-Fc
Method: (§3) To evaluate the binding of humanized antibodies to huPD-L1, Mouse PD-L1, Rat PD-L1, […], the antibodies were performed for the ELISA testing. Briefly, microtiter plates were coated with human, mouse, rat and rhesus PD-L1-Fc protein at 1 μg/ml in PBS, 100 μl/well at […] overnight, then blocked with […] of 5% BSA. Three-fold dilutions of humanized antibodies starting from 1 μg/ml were added to each well and incubated for 1-2 hours at RT. The plates were washed with PBS/Tween and then incubate with […] antibody conjugated with Horse Radish Peroxidase (HRP) for 1 hour at RT. After washing, the plates were developed with TMB substrate and analyzed by spectrophotometer at OD 450-630 nm. The Hu1210-41 antibody can bind to rhesus PD-L1 with lower affinity and cannot bind to rat and mouse PD-L1 (FIG. 8 & Table 12).

[9] = biological target: T2, human PD-L1-his taq protein; test: SPR Biacore T200, antibody captured, PD-L1-his injected
How it was run: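 HL1210-3 mouse mAb was captured via anti-mouse Fc antibody on a CM5 chip, then serially diluted PD-L1-his was injected for 3 min […]. Dissociation was followed for 900 s.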

human PD-L1-Fc protein [10] = biological target: T3, human PD-L1-Fc protein; test: ELISA on coated human PD-L1-Fc; table row 'Human PD-L1', no unit in the table, x axis Ab(nM); Table 12 of the text prints 0.215 nM
Method: as §3

rat PD-L1-Fc protein = rat PD-L1-Fc protein (rat, UniProt D4AE25 19-239); test: ELISA on coated PD-L1-Fc
Method: as §3

mouse PD-L1-Fc protein = biological target: T10, mouse PD-L1-Fc protein (mouse, UniProt Q9EP73 19-238, limits assumed); test: ELISA on coated PD-L1-Fc
T10 construct: not shown: Fc part
Method: as §3

rhesus PD-L1-Fc protein = biological target: T11, rhesus PD-L1-Fc protein (rhesus, UniProt F6PJN1 19-239); test: ELISA on coated rhesus PD-L1-Fc
T11 construct: not shown: Fc part
Method: as §3

T2 sequence (Q9NZQ7 19-239 limits assumed): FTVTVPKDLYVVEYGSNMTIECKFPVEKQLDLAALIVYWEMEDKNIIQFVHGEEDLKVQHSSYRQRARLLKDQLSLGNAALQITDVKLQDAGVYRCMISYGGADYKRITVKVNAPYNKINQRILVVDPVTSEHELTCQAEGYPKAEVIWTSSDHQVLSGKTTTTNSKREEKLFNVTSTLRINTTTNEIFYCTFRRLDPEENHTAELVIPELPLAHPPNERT
T3 sequence (Q9NZQ7 19-239 limits assumed): as above
T1 sequence (Q9NZQ7 19-290): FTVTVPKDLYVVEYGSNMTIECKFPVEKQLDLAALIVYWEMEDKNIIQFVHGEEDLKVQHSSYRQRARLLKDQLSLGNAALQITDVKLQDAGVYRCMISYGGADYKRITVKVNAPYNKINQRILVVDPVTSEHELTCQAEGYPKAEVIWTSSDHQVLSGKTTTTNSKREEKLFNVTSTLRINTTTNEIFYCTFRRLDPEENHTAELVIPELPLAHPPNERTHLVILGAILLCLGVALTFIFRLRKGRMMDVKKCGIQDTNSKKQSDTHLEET
T10 sequence (Q9EP73 19-238 limits assumed): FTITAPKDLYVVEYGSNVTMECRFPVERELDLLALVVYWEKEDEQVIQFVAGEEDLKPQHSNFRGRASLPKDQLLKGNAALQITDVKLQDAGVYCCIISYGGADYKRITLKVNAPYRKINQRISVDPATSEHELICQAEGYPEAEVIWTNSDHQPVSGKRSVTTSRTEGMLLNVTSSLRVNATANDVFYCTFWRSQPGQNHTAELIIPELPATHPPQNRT
Sequence of CTLA4 (P16410 36-161 limits assumed): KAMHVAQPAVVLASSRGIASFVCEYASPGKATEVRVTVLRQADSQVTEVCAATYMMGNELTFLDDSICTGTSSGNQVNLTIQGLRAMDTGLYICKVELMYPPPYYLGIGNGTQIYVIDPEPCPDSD
Sequence of rat PD-L1-Fc protein (D4AE25 entry or part of it limits assumed): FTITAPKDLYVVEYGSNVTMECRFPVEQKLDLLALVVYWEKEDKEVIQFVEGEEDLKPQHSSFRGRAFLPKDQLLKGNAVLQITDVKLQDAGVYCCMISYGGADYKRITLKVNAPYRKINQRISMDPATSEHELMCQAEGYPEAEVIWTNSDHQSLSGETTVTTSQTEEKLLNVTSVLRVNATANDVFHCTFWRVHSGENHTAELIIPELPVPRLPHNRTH
T6 sequence (Q15116 25-167 limits assumed): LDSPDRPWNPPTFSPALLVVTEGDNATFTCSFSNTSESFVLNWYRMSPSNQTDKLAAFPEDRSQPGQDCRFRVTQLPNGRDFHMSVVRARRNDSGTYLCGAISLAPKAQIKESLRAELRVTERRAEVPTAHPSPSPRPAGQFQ

B1: HL1210-3 mouse mAb (antibody, V domains shown)
VH: EVKLVESGGDLVKPGGSLKLSCAASGFTFSSYDMSWVRQTPEKSLEWVATISDGGGYIYYSDSVKGRFTISRDNAKNNLYLQMSSLRSEDTALYICAREFGKRYALDYWGQGTSVT
VL: DIVMTQSHKFMSTSVGDRVSISCKASQDVTPAVAWYQQKPGQSPKLLIYSTSSRYTGVPDRFTGSGSGTDFTFTISSVQAEDLAVYYCQQHYTTPLTFGAGTKLELK
notes: Mouse monoclonal antibody purified from hybridoma; also called hybridoma clone HL1210-3
- IC50 [1]: 2560 pM
- Kd [2]: 293 pM
- koff [2]: 4.69e-05 s⁻¹
- kon [2]: 161000 M⁻¹ s⁻¹
- EC50 (human PD-L1-Fc protein [3]): 5.54 ng/mL
- IC50 (human PD-L1-Fc protein [4]): 784 pM
- IC50 [5]: 2560 pM

B2: Hu1210-41 (antibody, V domains shown)
VH: EVQLVESGGGLVQPGGSLRLSCAASGFTFSSYDMSWVRQAPGKSLEWVATISDAGGYIYYSDSVKGRFTISRDNAKNSLYLQMNSLRDEDTAVYICAREFGKRYALDYWGQGTTVTVSS
VL: DIQMTQSPSSLSASVGDRVTITCKASQDVTPAVAWYQQKPGKAPKLLIYSTSSRYTGVPSRFSGSGSGTDFTFTISSLQPEDIATYYCQQHYTTPLTFGQGTKLEIK
notes: Hu1210 VH.4d x Vk.1; human gamma 1 / kappa constant domains; also called H12; Hu1210 VH.4d x Hu1210 Vk.1
- binding result (B7-2): no binding
- binding result (B7-DC): no binding
- binding result (CD28): no binding
- binding result (huPD-1): no binding
- binding result (ICOS): no binding
- binding result (B7-H2): no binding
- binding result (BTLA): no binding
- binding result (CTLA4): no binding
- binding result (B7-1 protein): no binding
- IC50 (read off the curve) (human PD-L1-Fc protein [6]): ~1000 pM
- IC50 (read off the curve) (human PD-L1-Fc protein [7]): ~900 pM
- EC50 (human PD-L1-Fc protein [8]): 215 pM
- Kd [9]: 378 pM
- koff [9]: 3.46e-05 s⁻¹
- kon [9]: 91700 M⁻¹ s⁻¹
- EC50 (human PD-L1-Fc protein [10]): 210 pM
- binding result (rat PD-L1-Fc protein): no binding (tested: 1 µg/ml (highest concentration))
- binding result (mouse PD-L1-Fc protein): no binding (tested: 1 µg/ml (highest concentration))
- EC50 (rhesus PD-L1-Fc protein): 628 pM
